Numbering of substitutions follows the chain as printed. Names and notes keep the numbering of the source.
B1: αE-catenin ABD 692–906 (domain or fragment)
chain: QEEKSKLDAEVSKWDDSGNDIIVLAKQMCMIMMEMTDFTRGKGPLKNTSDVISAAKKIAEAGSRMDKLGRTIADHCPDSACKQDLLAYLQRIALYCHQLNICSKVKAEVQNLGGELVVSGVDSAMSLIQAAKNLMNAVVQTVKASYVASTKYQKSQGMASLNLPAVSWKMKAPEKKPLVKREKQDETQTKIKRASQKKHVNPVQALSEFKAMDSI
B2: αE-catenin ABD 671–872 (domain or fragment)
chain: AIMAQLPQEQKAKIAEQVASFQEEKSKLDAEVSKWDDSGNDIIVLAKQMCMIMMEMTDFTRGKGPLKNTSDVISAAKKIAEAGSRMDKLGRTIADHCPDSACKQDLLAYLQRIALYCHQLNICSKVKAEVQNLGGELVVSGVDSAMSLIQAAKNLMNAVVQTVKASYVASTKYQKSQGMASLNLPAVSWKMKAPEKKPLVKR
B3: αE-catenin ABD 666–906 (full length) (domain or fragment)
chain: GQSARAIMAQLPQEQKAKIAEQVASFQEEKSKLDAEVSKWDDSGNDIIVLAKQMCMIMMEMTDFTRGKGPLKNTSDVISAAKKIAEAGSRMDKLGRTIADHCPDSACKQDLLAYLQRIALYCHQLNICSKVKAEVQNLGGELVVSGVDSAMSLIQAAKNLMNAVVQTVKASYVASTKYQKSQGMASLNLPAVSWKMKAPEKKPLVKREKQDETQTKIKRASQKKHVNPVQALSEFKAMDSI
B4: αE-catenin ABD 699–906 (domain or fragment)
chain: DAEVSKWDDSGNDIIVLAKQMCMIMMEMTDFTRGKGPLKNTSDVISAAKKIAEAGSRMDKLGRTIADHCPDSACKQDLLAYLQRIALYCHQLNICSKVKAEVQNLGGELVVSGVDSAMSLIQAAKNLMNAVVQTVKASYVASTKYQKSQGMASLNLPAVSWKMKAPEKKPLVKREKQDETQTKIKRASQKKHVNPVQALSEFKAMDSI
B5: αE-catenin ABD 671–906 (domain or fragment)
chain: AIMAQLPQEQKAKIAEQVASFQEEKSKLDAEVSKWDDSGNDIIVLAKQMCMIMMEMTDFTRGKGPLKNTSDVISAAKKIAEAGSRMDKLGRTIADHCPDSACKQDLLAYLQRIALYCHQLNICSKVKAEVQNLGGELVVSGVDSAMSLIQAAKNLMNAVVQTVKASYVASTKYQKSQGMASLNLPAVSWKMKAPEKKPLVKREKQDETQTKIKRASQKKHVNPVQALSEFKAMDSI
B6: αE-catenin ABD 671–906 W859A (domain or fragment)
chain: B5 chain with W189A
B7: αE-catenin ABD 696–906 (domain or fragment)
chain: SKLDAEVSKWDDSGNDIIVLAKQMCMIMMEMTDFTRGKGPLKNTSDVISAAKKIAEAGSRMDKLGRTIADHCPDSACKQDLLAYLQRIALYCHQLNICSKVKAEVQNLGGELVVSGVDSAMSLIQAAKNLMNAVVQTVKASYVASTKYQKSQGMASLNLPAVSWKMKAPEKKPLVKREKQDETQTKIKRASQKKHVNPVQALSEFKAMDSI
B8: αE-catenin ABD 699–868 (domain or fragment)
chain: DAEVSKWDDSGNDIIVLAKQMCMIMMEMTDFTRGKGPLKNTSDVISAAKKIAEAGSRMDKLGRTIADHCPDSACKQDLLAYLQRIALYCHQLNICSKVKAEVQNLGGELVVSGVDSAMSLIQAAKNLMNAVVQTVKASYVASTKYQKSQGMASLNLPAVSWKMKAPEKKP

target: F-actin (rabbit skeletal muscle actin, ADP-actin filaments) (rabbit, UniProt P68135 1-377); test: co-sedimentation; dilution series of ABD mixed with an equal volume of 4 μM F-actin, 30 min at room temperature, 20 mM HEPES pH 8.0, 150 mM NaCl, 1 mM DTT; pelleted at 140,717 x g for 20 min at 4°C; Coomassie bands quantified; fit with a Hill coefficient (W859A: one site-specific binding); details: both partners purified

Kd	Binder
700 nM	B1
5000 nM	B2
8500 nM	B3
500 nM	B4
2000 nM	B5
> 35000 nM	B6
400 nM	B7
2800 nM	B8
